Read-outs that look alike come from different tables or passages of the source.
What was measured:
[1] = biological target: peptide-BSA conjugate (respective antigens of the antibodies); assay: biolayer interferometry (Octet), peptide-BSA conjugate
[2] = biological target: T1, BSA conjugated to SAS1B peptide A (CGGLEETPESSFLIEGDIIRPSPFRL) (conjugated to BSA); assay: BLI (Octet)
T1 peptide: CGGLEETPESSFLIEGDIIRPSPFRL

[3] = biological target: T1, BSA conjugated to SAS1B peptide A …; assay: BLI (Octet)
[4] = biological target: T2, BSA conjugated to SAS1B peptide A (CGGLEETPESSFLIEGDIIRPSPFRL) (human, conjugated to BSA); assay: biolayer interferometry (Octet), peptide-BSA conjugate
T2 construct: also called peptide-BSA conjugate
T2 peptide: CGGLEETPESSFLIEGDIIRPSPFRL
Protocol: Protein A-Purified antibodies were subjected to binding kinetic analysis via biolayer interferometry (Fortebio's Octet instrument) and the parameters of binding to peptide-BSA conjugate were determined (FIGS. 8 and 9). […] The dissociation constants (Kdis) from these three clones were too slow to be accurately fit (<1×10⁻⁶ sec⁻¹). With the caveat that Kdis were inaccurate due to these long residency times, KDs were calculated (FIGS. 8 and 9).

[5] = biological target: T2, BSA conjugated to SAS1B peptide A …; assay: colorimetric ELISA, BSA-peptide A coated, anti-mouse IgG-HRP
Text: Colorimetric ELISA data comparing binding of naked OV119 to OV119 conjugated using stochastic chemistry (OV119-WT-OM) and AJICAP site-specific conjugation (OV119-CAP-DM1). The solid phase was coated with BSA conjugated to SAS1B peptide A ([…]). Normalized concentrations of the three antibody moieties were titrated by serial 5-fold dilution. A secondary antibody specific for mouse IgG and conjugated to horse radish peroxidase was then applied. After development using TMB substrate and reaction stopping with H₂SO₄, absorbance of light at 450 nm was measured and plotted against antibody concentration (FIG. 14).

B1: monoclonal antibody OV124 (antibody, V domains shown)
VH: EVQLQESGAELMKPGASVKLSCKATGSIFNKYWIDWVRQRPGHGLEWIGEILPGSGSTIYSEKFKGKATITADTSSNTAYMQLSSLTSEDSAVYYCASRALDYWGQGTTLTVSS
VL: DVVMTQTPLSLPVSLGDQASISCRSSQSLIHSNGNTYLHWYLQKPGQSPKLLIYQVSNRFSGVPDRFSGSGSGTDFTLKISRVEAEDLGVYFCSQSTHVPYTFGGGTKLEIK
koff [1]: < 1e-06 s⁻¹
Kd [2]: 0.115 nM

B2: monoclonal antibody OV121 (antibody, V domains shown)
VH: EVQLQESGPGLVKPSQSLSLTCTVTGYSVTSDSAWNWIRQFPGNKLEWMGYISYSGSTTYNPSLKSRISITRDTSENQFFLQLRSVTTEDTATYYCARLGNLFTMDYWGQGTSVTVSA
VL: EILLTQSPVILAASPGEKVTITCSASSSLNYMNWYQQRPGSSPKIWIYGISNLASGVPARFSGSGSGTSFSFTINSMEAEDVATYYCQQRSSFPFTFGSGTKLEIK
Kd [3]: 0.532 nM

B3: monoclonal antibody OV123 (antibody, V domains shown)
VH: EVQLQESGPGLVKPSQSLSLTCTVTGYSITSDNAWNWIRQFPGNKLEWMGYISYSGRTSYNPSLKSRISVTRDTSKNRFFLQLNSVTTEDTATYYCARIGSYFTMDYWGQGTSVTVSS
VL: DVVMTQTPLSLSVGLGDQASISCRSSQSLVHINGSTYLHWYLQKPGQSPKLLIYKIANRFSGVPDRFSGSGSGTDFTLKISRVEAEDLGAYFCSQSTHVPLTFGAGTKLEIK
koff [1]: < 1e-06 s⁻¹
Kd [2]: 0.284 nM

B4: monoclonal antibody OV119 (antibody, V domains shown)
VH: EVQLQESGPELVKPGASVKISCKTSGYTFTEYPMHWVKQSHGKSLEWIGGINPNNGDTTYNQRFKGKATLTVDKSSGTAYMELRSLTSEDSAVYYCVPNFDWFAYWGQGTLVTVSP
VL: DVLMTQSPLSLPVSLGDQASISCRSSQSIVHSYGNTYLEWYLQKPGQSPKLLIYKVSNRFSGVPDRFSGSGSGTDFTLRISRVEAEDLGIYYCFQGSHLPFTFGGGTKLEIK
notes: Mouse hybridoma monoclonal IgG; also called naked OV119 (unconjugated)
Kd [2]: 0.0343 nM
koff [4]: < 1e-06 s⁻¹

B5: OV119 conjugated using stochastic chemistry (OV119-WT-OM) (antibody, V domains shown)
VH: B4 VH
VL: B4 VL
modifications: drug conjugated by stochastic chemistry; sites and drug load not stated
notes: Stochastic conjugate of OV119
binding result [5]: binds

B6: OV119 conjugated to DM1 using AJICAP site-specific conjugation (antibody, V domains shown)
VH: B4 VH
VL: B4 VL
modifications: DM1 on the heavy chain by AJICAP site-specific conjugation via azide intermediates, 1 or 2 DM1 molecules per heavy chain (DAR 2, 3 and 4); residue not stated
notes: Antibody-drug conjugate of mouse IgG OV119; also called OV119-DM1; OV119-CAP-DM1
binding result [5]: binds

B7: monoclonal antibody OV115 (antibody, V domains shown)
VH: DVQLQESGPGLVKPSQSLSLTCTVTGYSLTSDYAWNWIRQFPGKKVEWMGYLSYSGRTSYNPSLKSRISITRDTSRNQFFLQLNSVTTEDTATYYCARMGGNFGFDYWGQGTTLTVST
VL: GIVMTQAPLSLPVSLGDQASISCRSSQSLVHINGSTYLHWYLQKPGQSPNLLIYKVSYRFSGVPDRFSGSGSGTDFTLKITRVEAEDLGVYFCSQSTHVPLTFGSGTKLEIK
Kd [3]: < 0.001 nM

From US20230265212A1 (OVERA, published 2023)
